Test results published in patent publication US7033593.
Where “and” joins values, the source holds several entries; their conditions need not be identical. Equal values may be shown once.

Tests used:
[1] = molecular target: soluble HIV 89.6 gp120 envelope protein (HIV 89.6 (Clade B) primary isolate) (UniProt Q73372)
[2] = molecular target: soluble CD4 (UniProt P01730); assay: SPR, preliminary experiments
[3] = molecular target: soluble CD4 (UniProt P01730); assay: SPR, gp120 over immobilised CD4
[4] = molecular target: soluble CD4 (UniProt P01730); assay: SPR (BIAcore), gp120 and CD4
[5] = molecular target: soluble HIV 89.6 gp120 envelope protein (HIV 89.6 (Clade B) primary isolate) (UniProt Q73372); remark: listed apart in the source
[6] = molecular target: A32-gp120 complex (HIV 89.6 gp120 bound to mab A32) (HIV 89.6 (Clade B) primary isolate) (UniProt Q73372); assay: SPR SA-chip assay (FIG. 28B)
[7] = molecular target: A32-gp120 complex (HIV 89.6 gp120 bound to mab A32) (HIV 89.6 (Clade B) primary isolate) (UniProt Q73372); assay: SPR SA-chip assay, single component
[8] = molecular target: soluble HIV 89.6 gp120 envelope protein (HIV 89.6 (Clade B) primary isolate) (UniProt Q73372); assay: SPR SA-chip assay, gp120 over scrDP178 surface
[9] = molecular target: soluble HIV 89.6 gp120 envelope protein (HIV 89.6 (Clade B) primary isolate) (UniProt Q73372); assay: SPR SA-chip assay, 89.6 gp120 over scrDP178 surface
[10] = molecular target: HR-2 peptide DP178 (HIV-1 89.6)
[11] = molecular target: scrambled sequence DP178 peptide; assay: SPR SA-chip assay, scrDP178 surface

mab 19b (antibody)
% blocking of DP178 binding [1]: 68%

soluble, monomeric gp120 DH12
t1/2 of binding [2]: 25 min | Kd [3]: 96 nM | koff [3]: 0.00047 s⁻¹ | Kd [4]: 78 nM | koff [4]: 0.000386 s⁻¹ | kon [4]: 4900 M⁻¹ s⁻¹ | t1/2 [4]: 30 min

mAb 48d (antibody)
% blocking of DP178 binding [1]: 80%

scrambled sequence DP178 peptide
band density [5]: 0.6 ODunits/mm^2 | RU [6]: < 200 RU | koff [7]: 0.017 s⁻¹ | RU [8]: 50 RU | RU (background signal) [9]: 10 RU and 20 RU

soluble HIV 89.6 gp120 envelope protein, Q73372 32-508
koff [10]: 0.017 s⁻¹

soluble, monomeric gp120 JRFL
t1/2 of binding [2]: 14 min | Kd [3]: 146 nM | koff [3]: 0.00088 s⁻¹ | Kd [4]: 150 nM | koff [4]: 0.000884 s⁻¹ | kon [4]: 6000 M⁻¹ s⁻¹

mab 17b (antibody)
% blocking of DP178 binding [1]: 80%

mab A32 (antibody)
RU (background signal) [11]: 10 RU and 20 RU
